Assay results from US20220251204A1 (AstraZeneca / MedImmune, published 2022).

T1: human OX40 expressed on cells (human, UniProt P43489 29-277)
T1 sequence: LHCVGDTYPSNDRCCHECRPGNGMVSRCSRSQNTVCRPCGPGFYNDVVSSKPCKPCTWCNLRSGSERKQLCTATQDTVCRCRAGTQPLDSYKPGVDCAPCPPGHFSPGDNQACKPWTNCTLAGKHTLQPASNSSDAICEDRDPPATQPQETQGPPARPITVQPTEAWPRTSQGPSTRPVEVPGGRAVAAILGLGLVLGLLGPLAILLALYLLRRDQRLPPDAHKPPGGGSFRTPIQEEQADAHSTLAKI

T2: CD32a expressed on HEK cells (UniProt P12318 34-317)
T2 construct: whole, on cells; also called HEK CD32a cells
T2 sequence (looked up): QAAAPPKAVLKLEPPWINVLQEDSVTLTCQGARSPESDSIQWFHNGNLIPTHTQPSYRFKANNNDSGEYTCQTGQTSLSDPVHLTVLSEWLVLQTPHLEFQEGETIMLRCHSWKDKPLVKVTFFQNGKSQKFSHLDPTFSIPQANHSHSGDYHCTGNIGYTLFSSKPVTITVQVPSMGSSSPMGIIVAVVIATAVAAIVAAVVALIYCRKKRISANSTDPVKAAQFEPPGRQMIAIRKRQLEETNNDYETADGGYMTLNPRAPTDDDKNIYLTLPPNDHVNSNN

T3: mouse PD-1 (mouse, UniProt Q02242 25-167)
T3 construct: also called mu PD1
T3 sequence (looked up): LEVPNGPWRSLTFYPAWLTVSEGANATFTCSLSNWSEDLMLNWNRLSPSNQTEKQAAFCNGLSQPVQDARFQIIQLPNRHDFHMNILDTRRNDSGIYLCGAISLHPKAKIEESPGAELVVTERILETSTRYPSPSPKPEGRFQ

T4: human TIM3 expressed on CHO cells (human, UniProt Q8TDQ0 22-301)
T4 construct: also called CHO cells overexpressing human TIM3
T4 sequence: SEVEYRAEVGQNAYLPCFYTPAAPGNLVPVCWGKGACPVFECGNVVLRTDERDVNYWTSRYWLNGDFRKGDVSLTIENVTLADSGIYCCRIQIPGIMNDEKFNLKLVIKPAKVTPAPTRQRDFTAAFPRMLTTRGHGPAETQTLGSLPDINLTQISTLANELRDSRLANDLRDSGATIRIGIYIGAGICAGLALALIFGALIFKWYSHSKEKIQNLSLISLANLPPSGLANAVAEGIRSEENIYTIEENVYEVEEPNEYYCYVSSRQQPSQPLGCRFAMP

T5: human TIM3 (soluble) (human, UniProt Q8TDQ0 22-202)
T5 construct: also called Biotinylated human TIM3
T5 sequence: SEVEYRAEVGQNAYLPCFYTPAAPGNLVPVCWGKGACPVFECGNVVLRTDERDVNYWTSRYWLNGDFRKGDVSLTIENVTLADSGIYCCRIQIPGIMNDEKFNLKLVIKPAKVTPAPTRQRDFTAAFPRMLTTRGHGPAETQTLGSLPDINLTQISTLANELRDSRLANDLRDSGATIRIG

T6: cynomolgus TIM3 (cynomolgus, UniProt A0A2K5U3G7 22-195)
T6 construct: also called Cyno TIM3
T6 sequence: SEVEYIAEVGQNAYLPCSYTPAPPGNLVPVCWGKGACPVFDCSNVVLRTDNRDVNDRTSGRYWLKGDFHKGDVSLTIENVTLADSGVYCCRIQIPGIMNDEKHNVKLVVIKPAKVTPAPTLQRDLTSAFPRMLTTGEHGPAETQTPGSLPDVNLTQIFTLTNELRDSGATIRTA

B1: PD-1(LO115)/OX40 BiS2 mAb (bispecific antibody, human IgG4 S228P, kappa)
heavy: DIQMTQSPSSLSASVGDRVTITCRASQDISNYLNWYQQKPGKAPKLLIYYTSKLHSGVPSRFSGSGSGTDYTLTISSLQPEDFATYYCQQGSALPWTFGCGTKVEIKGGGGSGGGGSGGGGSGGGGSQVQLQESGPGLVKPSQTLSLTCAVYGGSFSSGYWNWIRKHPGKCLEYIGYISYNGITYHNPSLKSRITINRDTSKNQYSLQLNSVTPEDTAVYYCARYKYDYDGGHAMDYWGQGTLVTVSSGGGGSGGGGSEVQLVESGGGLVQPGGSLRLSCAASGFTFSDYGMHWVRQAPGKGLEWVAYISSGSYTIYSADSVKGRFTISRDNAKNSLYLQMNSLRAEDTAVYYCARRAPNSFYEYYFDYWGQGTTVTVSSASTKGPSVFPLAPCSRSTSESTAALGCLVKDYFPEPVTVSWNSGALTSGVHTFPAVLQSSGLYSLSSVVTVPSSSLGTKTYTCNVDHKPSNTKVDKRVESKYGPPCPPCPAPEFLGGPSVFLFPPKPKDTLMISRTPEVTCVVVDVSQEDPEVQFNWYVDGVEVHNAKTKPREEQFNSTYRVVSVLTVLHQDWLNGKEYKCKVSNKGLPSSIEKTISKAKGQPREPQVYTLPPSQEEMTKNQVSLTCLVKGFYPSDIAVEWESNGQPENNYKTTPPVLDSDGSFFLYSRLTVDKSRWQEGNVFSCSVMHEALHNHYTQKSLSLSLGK
light: QIVLTQSPATLSLSPGERATLSCSASSKHTNLYWSRHMYWYQQKPGQAPRLLIYLTSNRATGIPARFSGSGSGTDFTLTISSLEPEDFAVYYCQQWSSNPFTFGQGTKLEIKRTVAAPSVFIFPPSDEQLKSGTASVVCLLNNFYPREAKVQWKVDNALQSGNSQESVTEQDSKDSTYSLSSTLTLSKADYEKHKVYACEVTHQGLSSPVTKSFNRGEC
B2: OX40(SLR)/PD-L1 BiS5 (bispecific antibody, human IgG1, kappa)
heavy: QVQLQESGPGLVKPSQTLSLTCAVYGGSFSSGYWNWIRKHPGKGLEYIGYISYNAITYHNPSLKSRITINRDTSKNQYSLQLNSVTPEDTAVYYCARYKYDYEGGHAMDYWGQGTLVTVSSASTKGPSVFPLAPSSKSTSGGTAALGCLVKDYFPEPVTVSWNSGALTSGVHTFPAVLQSSGLYSLSSVVTVPSSSLGTQTYICNVNHKPSNTKVDKRVEPKSCDKTHTCPPCPAPELLGGPSVFLFPPKPKDTLMISRTPEVTCVVVDVSHEDPEVKFNWYVDGVEVHNAKTKPREEQYNSTYRVVSVLTVLHQDWLNGKEYKCKVSNKALPAPIEKTISKAKGQPREPQVYTLPPSREEMTKNQVSLTCLVKGFYPSDIAVEWESNGGGGSGGGGSEVQLVESGGGLVQPGGSLRLSCAASGFTFSRYWMSWVRQAPGKCLEWVANIKQDGSEKYYVDSVKGRFTISRDNAKNSLYLQMNSLRAEDTAVYYCAREGGWFGELAFDYWGQGTLVTVSSGGGGSGGGGSGGGGSGGGGSEIVLTQSPGTLSLSPGERATLSCRASQRVSSSYLAWYQQKPGQAPRLLIYDASSRATGIPDRFSGSGSGTDFTLTISRLEPEDFAVYYCQQYGSLPWTFGCGTKVEIKGGGGSGGGGSGQPENNYKTTPPVLDSDGSFFLYSKLTVDKSRWQQGNVFSCSVMHEALHAHYTQKSLSLSPGK
light: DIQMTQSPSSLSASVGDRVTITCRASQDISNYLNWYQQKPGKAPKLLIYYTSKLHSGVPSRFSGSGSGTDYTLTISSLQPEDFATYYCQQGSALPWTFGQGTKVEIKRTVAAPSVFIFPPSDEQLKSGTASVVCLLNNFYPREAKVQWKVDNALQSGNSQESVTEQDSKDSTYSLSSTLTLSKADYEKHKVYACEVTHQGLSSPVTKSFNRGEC
notes: also called BiS5 OX40Ab/PD-L1; PD-L1/OX40 BiS5
B3: Anti-PD-1 (LO115) IgG (antibody, V domains shown)
VH: EVQLVESGGGLVQPGGSLRLSCAASGFTFSDYGMHWVRQAPGKGLEWVAYISSGSYTIYSADSVKGRFTISRDNAKNSLYLQMNSLRAEDTAVYYCARRAPNSFYEYYFDYWGQGTTVTVSS
VL: QIVLTQSPATLSLSPGERATLSCSASSKHTNLYWSRHMYWYQQKPGQAPRLLIYLTSNRATGIPARFSGSGSGTDFTLTISSLEPEDFAVYYCQQWSSNPFTFGQGTKLEIK
notes: also called anti-PD-1 parental monoclonal antibody
B4: O13-1 IgG1-TM (antibody, V domains shown)
VH: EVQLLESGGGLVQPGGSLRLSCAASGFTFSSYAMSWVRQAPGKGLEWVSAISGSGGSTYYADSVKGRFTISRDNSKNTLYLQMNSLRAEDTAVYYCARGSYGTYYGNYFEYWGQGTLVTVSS
VL: SYVLTQPPSVSVAPGKTARITCGGDNIGGKSVHWYQQKPGQAPVLVIYYDSDRPSGIPERFSGSNSGNTATLTISRVEAGDEADYYCQVLDRRSDHFLFGGGTKLTVLG
notes: also called anti-TIM3 LOO131
B5: hOX40-Fc (human recombinant protein, R&D Systems) (Fc fusion)
chain: LHCVGDTYPSNDRCCHECRPGNGMVSRCSRSQNTVCRPCGPGFYNDVVSSKPCKPCTWCNLRSGSERKQLCTATQDTVCRCRAGTQPLDSYKPGVDCAPCPPGHFSPGDNQACKPWTNCTLAGKHTLQPASNSSDAICEDRDPPATQPQETQGPPARPITVQPTEAWPRTSQGPSTRPVEVPGGRAVA
notes: also called human OX40-Fc; not shown: Fc part of the bought fusion

Columns and labels:
[1] = target: T7, human PD-1 expressed on cells (human, UniProt Q15116 25-288); test: cell-based or functional assay
[2] = target: T1, human OX40 expressed on cells; test: cell-based or functional assay
[3] = target: T2, CD32a expressed on HEK cells; test: flow cytometry (HyperCyt, FL4-H median) on HEK CD32a cells, concentration not given
[4] = target: B5; test: Octet: antibody held on PDL1-HiS-Fc loaded anti-HiS sensor, then 5ug/mL rhOx40-Fc association
[5] = target: T1, human OX40 expressed on cells; test: flow cytometry (HyperCyt, FL4-H median) on Jurkat OX40 cells, one condition, concentration not given
[6] = target: T7, human PD-1 expressed on cells; test: flow cytometry, CHO cells expressing PD-1:CTLA-4 (10:1)
cynomolgus PD-1 = target: T8, cynomolgus PD-1 (cynomolgus, UniProt B0LAJ3 25-170); test: SPR, BIAcore T200; antibody captured on mouse anti-huIgG-Fab, antigen injected
T8 construct: also called cyno PD1

mouse PD-1 = target: T3, mouse PD-1; test: as above
[7] = target: T9, human PD-1 antigen (soluble) (human, UniProt Q15116 25-170); test: as above
T9 construct: also called hu PD1; Biotinylated human PD-1

[8] = target: T7, human PD-1 expressed on cells; test: flow cytometry, IgG binding to cultured T cells stimulated with anti-CD3+anti-CD28, CD4+ gate
[9] = target: T7, human PD-1 expressed on cells; test: flow cytometry receptor occupancy, CHO cells expressing PD-1:CTLA-4 (10:1); free PD-1 detected with labeled anti-PD-1 mAb
[10] = target: T7, human PD-1 expressed on cells; test: flow cytometry receptor occupancy, CHO cells expressing PD-1:CTLA-4 (40:1); free PD-1 detected with labeled anti-PD-1 mAb
[11] = target: T7, human PD-1 expressed on cells; test: flow cytometry receptor occupancy, CHO cells expressing PD-1:CTLA-4 (40:1), combination of the anti-PD-1 and anti-CTLA-4 mAbs; free PD-1 detected with labeled anti-PD-1 mAb; the light-triangle curve crosses 50 % at about 6 to 7 nM
[12] = target: T4, human TIM3 expressed on CHO cells; test: flow cytometry, Human TIM3 CHO cells, x axis hIgG1TM (nM)
[13] = target: T7, human PD-1 expressed on cells; test: flow cytometry, HumanPD1 CHO cells, x axis hIgG1TM mAb (nM)
human TIM3 (soluble) = target: T5, human TIM3 (soluble); test: SPR, BIAcore T200; antibody captured on mouse anti-huIgG-Fab, antigen injected
cynomolgus TIM3 = target: T6, cynomolgus TIM3; test: as above
[14] = target: T10, His-tagged PD-L1-Fc (human recombinant protein, R&D Systems) (human, UniProt Q9NZQ7 19-238); test: Octet: PDL1-HiS-Fc loaded anti-HiS sensor, 5ug/mL rhOx40-Fc association
T10 construct: also called PD-L1-His
T10 sequence (Q9NZQ7 19-238 limits assumed): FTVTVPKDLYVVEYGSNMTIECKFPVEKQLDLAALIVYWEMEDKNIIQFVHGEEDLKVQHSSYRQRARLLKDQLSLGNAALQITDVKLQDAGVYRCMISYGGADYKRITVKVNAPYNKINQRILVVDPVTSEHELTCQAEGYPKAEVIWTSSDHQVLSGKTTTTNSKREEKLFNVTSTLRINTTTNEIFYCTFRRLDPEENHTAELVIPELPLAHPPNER

T9 sequence (Q15116 25-170 limits assumed): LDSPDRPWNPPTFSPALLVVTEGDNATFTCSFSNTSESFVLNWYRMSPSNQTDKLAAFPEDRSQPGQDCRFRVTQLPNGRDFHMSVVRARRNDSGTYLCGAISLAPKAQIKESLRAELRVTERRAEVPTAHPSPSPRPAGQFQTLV
T8 sequence (B0LAJ3 entry or part of it limits assumed): as the sequence (Q15116 25-170 limits assumed) above, with D2E, P10A, V19L, T35A, Q75R, T144A counted along it
T7 sequence (Q15116 25-288 limits assumed): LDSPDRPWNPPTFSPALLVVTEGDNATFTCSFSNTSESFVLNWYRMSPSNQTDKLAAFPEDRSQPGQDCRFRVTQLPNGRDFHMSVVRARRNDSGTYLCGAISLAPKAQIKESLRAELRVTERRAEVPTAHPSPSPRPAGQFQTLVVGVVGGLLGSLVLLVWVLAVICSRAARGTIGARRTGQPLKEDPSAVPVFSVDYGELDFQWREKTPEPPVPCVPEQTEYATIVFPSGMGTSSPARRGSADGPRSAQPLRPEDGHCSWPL

**Q.** Which “PD-1/PD-L1 reporter assay, EC50 (relative light units)” value [1] does the source give for B1 here?
**A.** ~1 nM

**Q.** What about the “OX40 reporter assay, EC50 (relative light units)” value [2] of the same binder?
**A.** ~2 nM

**Q.** Does B2 bind [3]?
**A.** binds

**Q.** Does B2 bind [4]?
**A.** binds

**Q.** Does B2 bind [5]?
**A.** binds

**Q.** How did the “EC50 (read off the curve)” value [6] turn out when B3 was run?
**A.** ~2 nM

**Q.** And the Kd (cynomolgus PD-1)?
**A.** 0.69 nM

**Q.** What about the koff (cynomolgus PD-1) of the same binder?
**A.** 0.000238 s⁻¹

**Q.** And the kon (cynomolgus PD-1)?
**A.** 346000 M⁻¹ s⁻¹

**Q.** What about the Kd (mouse PD-1) of the same binder?
**A.** 447 nM

**Q.** And the koff (mouse PD-1)?
**A.** 0.0665 s⁻¹

**Q.** And the kon (mouse PD-1)?
**A.** 149000 M⁻¹ s⁻¹

**Q.** And the Kd [7]?
**A.** 0.79 nM

**Q.** And the koff [7]?
**A.** 0.000237 s⁻¹

**Q.** And the kon [7]?
**A.** 302000 M⁻¹ s⁻¹

**Q.** And the “EC50 (read off the curve)” value [8]?
**A.** ~1 nM

**Q.** And the IC50 [9]?
**A.** 3.9 nM

**Q.** What about the IC50 [10] of the same binder?
**A.** 5.5 nM

**Q.** And the IC50 [11]?
**A.** 6.4 nM

**Q.** With B4 as the binder, how does the “EC50 (read off the curve)” value [12] read?
**A.** ~0.03 nM

**Q.** Does B4 bind [13]?
**A.** no binding (tested: about 100 nM)

**Q.** And the Kd (human TIM3 (soluble))?
**A.** 4.01 nM

**Q.** What about the koff (human TIM3 (soluble)) of the same binder?
**A.** 0.00752 s⁻¹

**Q.** What about the kon (human TIM3 (soluble)) of the same binder?
**A.** 1.88e+06 M⁻¹ s⁻¹

**Q.** What about the Kd (cynomolgus TIM3) of the same binder?
**A.** 25.7 nM

**Q.** What about the koff (cynomolgus TIM3) of the same binder?
**A.** 0.0718 s⁻¹

**Q.** What about the kon (cynomolgus TIM3) of the same binder?
**A.** 2.79e+06 M⁻¹ s⁻¹

**Q.** Does B5 bind [14]?
**A.** no binding (tested: 5ug/mL)
